Patent US20250376536A1 (Bristol-Myers Squibb, published 2025)

What was measured:
[1] = target: T1, soluble FAP (human, UniProt Q12884 26-760, limits assumed); assay: cell-based or functional assay
T1 sequence: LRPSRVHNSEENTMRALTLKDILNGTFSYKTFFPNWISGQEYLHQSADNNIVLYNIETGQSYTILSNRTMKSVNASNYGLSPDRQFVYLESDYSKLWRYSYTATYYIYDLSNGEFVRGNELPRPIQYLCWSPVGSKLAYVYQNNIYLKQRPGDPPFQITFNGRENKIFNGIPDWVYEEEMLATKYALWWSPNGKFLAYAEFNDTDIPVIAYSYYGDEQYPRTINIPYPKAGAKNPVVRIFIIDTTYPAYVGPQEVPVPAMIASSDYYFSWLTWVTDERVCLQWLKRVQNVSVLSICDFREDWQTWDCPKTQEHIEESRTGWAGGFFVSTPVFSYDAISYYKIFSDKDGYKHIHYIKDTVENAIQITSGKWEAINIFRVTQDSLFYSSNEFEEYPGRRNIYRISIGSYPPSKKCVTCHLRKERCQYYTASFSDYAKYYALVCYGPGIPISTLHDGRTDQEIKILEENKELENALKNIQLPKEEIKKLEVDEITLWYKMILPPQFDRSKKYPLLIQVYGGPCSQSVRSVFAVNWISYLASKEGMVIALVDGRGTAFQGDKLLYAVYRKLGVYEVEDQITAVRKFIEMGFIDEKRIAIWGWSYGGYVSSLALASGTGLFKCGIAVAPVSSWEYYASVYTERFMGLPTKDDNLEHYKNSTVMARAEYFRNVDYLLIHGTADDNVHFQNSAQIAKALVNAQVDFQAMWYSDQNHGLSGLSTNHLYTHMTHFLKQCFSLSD

[2] = target: T2, human FAP on cells (human, UniProt Q12884 1-760); assay: cell-based or functional assay
T2 sequence: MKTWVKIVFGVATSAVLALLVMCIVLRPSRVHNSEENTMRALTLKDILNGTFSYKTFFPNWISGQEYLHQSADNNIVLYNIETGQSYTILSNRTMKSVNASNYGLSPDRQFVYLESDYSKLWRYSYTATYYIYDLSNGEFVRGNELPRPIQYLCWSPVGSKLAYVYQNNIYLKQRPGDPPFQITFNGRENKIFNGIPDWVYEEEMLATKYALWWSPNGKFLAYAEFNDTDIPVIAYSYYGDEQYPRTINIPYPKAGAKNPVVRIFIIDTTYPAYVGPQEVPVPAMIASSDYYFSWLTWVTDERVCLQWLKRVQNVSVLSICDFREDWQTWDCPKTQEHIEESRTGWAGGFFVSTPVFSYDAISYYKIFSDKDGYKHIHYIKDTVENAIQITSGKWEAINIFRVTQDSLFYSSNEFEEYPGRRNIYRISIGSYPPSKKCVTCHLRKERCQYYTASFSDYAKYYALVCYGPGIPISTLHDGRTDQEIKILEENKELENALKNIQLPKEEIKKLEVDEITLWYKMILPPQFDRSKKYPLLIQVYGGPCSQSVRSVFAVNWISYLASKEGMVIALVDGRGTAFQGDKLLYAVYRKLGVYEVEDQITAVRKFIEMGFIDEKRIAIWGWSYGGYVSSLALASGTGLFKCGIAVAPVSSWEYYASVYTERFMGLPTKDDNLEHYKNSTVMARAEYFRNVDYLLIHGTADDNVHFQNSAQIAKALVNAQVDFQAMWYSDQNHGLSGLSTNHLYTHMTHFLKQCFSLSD

[3] = target: T3, cyno CD40 on B cells (cynomolgus monkey, UniProt G7PG38 21-278); assay: binding to cyno CD40-positive B cells
T3 construct: whole, on cells; also called Cyno CD40-positive B cell

[4] = target: FcγRIIIA (CD16a) (UniProt P08637 17-208, limits assumed); assay: SPR, Biacore S200, antibody captured on Protein A chip, FcγR as analyte
Method: (§1) Binding of CD40.9H3×FAP.LP62 and the analog of RO7300490 to various Fc gamma receptors (FcγR1 (CD64), FcγRIIIA (CD16a), FcγRIIIB (CD16b), FcγRIIA (CD32a), FcγRIIB (CD32b)) was determined in an analyte/capture assay in vitro. Briefly, an SPR assay was performed using a Biacore S200 with a Biacore Series S Protein A chip (Cytiva). All antibodies were prepared at 4.0 μg/ml in 1×HBS-EP+ running buffer (Cytiva) and captured onto flow cells 2, 3, and 4 through a 60 second contact time at 10 μl/min. An analyte series of the FcγRs (BMS In-House Produced) were prepared at 10,000 nM in 1×HBS-EP+ with eight, three-fold dilutions. Kinetic measurements were conducted with a 120 second association followed by a 120 second dissociation at 30 μl/min. Surface regeneration was preformed by 60 second contact time of 50 mM Glycine pH 1.5 solution (Cytiva) at 30 μl/min. Data was processed in Biacore Insight Evaluation Version 5 (Cytiva). Sensorgrams were double referenced and globally fit to a 1:1 Langmuir model were applicable. Where 1:1 model was not sufficient to describe the interaction (fast-on and fast-off rates), steady state equilibrium fitting was used to determine the equilibrium constant.

[5] = target: T4, FcγRIIB (CD32b) (UniProt P31994 43-217, limits assumed); assay: as above
T4 sequence (looked up): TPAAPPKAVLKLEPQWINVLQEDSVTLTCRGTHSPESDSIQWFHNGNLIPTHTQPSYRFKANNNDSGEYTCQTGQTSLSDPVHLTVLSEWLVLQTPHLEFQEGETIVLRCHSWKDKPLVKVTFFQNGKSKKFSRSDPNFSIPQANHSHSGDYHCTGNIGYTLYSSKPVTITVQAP
Method: as §1

[6] = target: T5, FcγRI (CD64) (UniProt P12314 16-288, limits assumed); assay: as above
T5 construct: also called FcγR1 (CD64); FcγR1
Method: as §1

[7] = target: T6, FcγRIIA (CD32a) (UniProt P12318 34-217, limits assumed); assay: as above
T6 sequence (looked up): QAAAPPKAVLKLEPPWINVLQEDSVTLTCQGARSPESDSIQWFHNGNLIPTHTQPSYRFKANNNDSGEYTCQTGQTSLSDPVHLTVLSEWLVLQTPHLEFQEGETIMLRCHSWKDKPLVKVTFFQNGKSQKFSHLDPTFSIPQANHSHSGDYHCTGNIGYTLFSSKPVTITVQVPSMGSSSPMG
Method: as §1

[8] = target: T7, human CD40 on cells (human, UniProt P25942 21-277); assay: binding to human CD40-positive B cells
T7 construct: Endogenous CD40 on human primary cells and Raji cells; also called CD40-positive macrophage; CD40-positive B cell
T7 sequence (P25942 21-277): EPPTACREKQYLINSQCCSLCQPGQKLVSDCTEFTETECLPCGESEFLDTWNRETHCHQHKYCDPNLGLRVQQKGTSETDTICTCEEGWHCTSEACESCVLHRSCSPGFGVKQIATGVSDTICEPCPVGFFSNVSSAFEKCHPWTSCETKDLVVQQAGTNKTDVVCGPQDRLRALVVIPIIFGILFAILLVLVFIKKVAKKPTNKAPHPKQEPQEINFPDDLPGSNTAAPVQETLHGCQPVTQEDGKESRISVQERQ

Sequence of FcγRIIIA (CD16a) (P08637 17-208 limits assumed): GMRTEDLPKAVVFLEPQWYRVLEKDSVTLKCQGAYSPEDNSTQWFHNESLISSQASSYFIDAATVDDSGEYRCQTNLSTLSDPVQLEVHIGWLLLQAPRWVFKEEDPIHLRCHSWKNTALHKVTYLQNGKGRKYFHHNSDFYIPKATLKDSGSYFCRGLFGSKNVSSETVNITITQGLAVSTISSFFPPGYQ
T5 sequence (P12314 16-288 limits assumed): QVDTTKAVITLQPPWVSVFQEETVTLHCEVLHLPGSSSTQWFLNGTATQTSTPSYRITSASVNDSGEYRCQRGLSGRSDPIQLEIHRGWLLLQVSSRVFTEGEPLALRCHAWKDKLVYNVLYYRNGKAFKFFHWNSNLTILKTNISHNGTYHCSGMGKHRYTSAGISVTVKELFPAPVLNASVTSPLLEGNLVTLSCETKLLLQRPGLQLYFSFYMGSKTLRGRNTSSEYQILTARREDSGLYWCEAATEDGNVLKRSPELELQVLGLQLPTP

- IL12p40 release, human DC + HFF1 co-culture, EC50, soluble FAP 120 ng/mL [1]: 0.46 nM
- IL12p40 release, human DC + HFF1 co-culture, EC50, soluble FAP 480 ng/mL [1]: 0.8 nM
- IL12p40 release, human DC + HFF1 co-culture, EC50, soluble FAP 0 ng/mL [2]: 0.13 nM
- EC50 [3]: 4.69 nM
- binding result [4]: no binding
- binding result [5]: no binding
- binding result [6]: no binding
- binding result [7]: no binding
- EC50 [8]: 7.53 nM
B1: CD40.9H3×FAP.LP62 bispecific antibody (bispecific antibody, human IgG1, kappa, L234A L235A)
heavy 1: EVQLVESGGGLVQPGGSLRLSCAASGFTFIGYSMNWVRQAPGKGLEWVSYISSYESTIYYADSVKGRFTISRDNAKNSLYLQMNSLRAEDTAVYYCARSRITLVRGVPRYFDLWGRGTLVTVSSASTKGPSVFPLAPSSKSTSGGTAALGCLVKDYFPEPVTVSWNSGALTSGVHTFPAVLQSSGLYSLSSVVTVPSSSLGTQTYICNVNHKPSNTKVDKKVEPKSCDKTHTCPPCPAPEAAGGPSVFLFPPKPKDTLMISRTPEVTCVVVSVSHEDPEVKFNWYVDGVEVHNAKTKPREEQYNSTYRVVSVLTVLHQDWLNGKEYKCKVSNKALPAPIEKTISKAKGQPREPQVYVLPPSREEMTKNQVSLLCLVKGFYPSDIAVEWESNGQPENNYLTWPPVLDSDGSFFLYSKLTVDKSRWQQGNVFSCSVMHEALHNHYTQKSLSLSPG
heavy 2: EVQLVESGGGLVQPGGSLRLSCAASGFTFIGYSMNWVRQAPGKGLEWVSYISSYESTIYYADSVKGRFTISRDNAKNSLYLQMNSLRAEDTAVYYCARSRITLVRGVPRYFDLWGRGTLVTVSSASTKGPSVFPLAPSSKSTSGGTAALGCLVKDYFPEPVTVSWNSGALTSGVHTFPAVLQSSGLYSLSSVVTVPSSSLGTQTYICNVNHKPSNTKVDKKVEPKSCDKTHTCPPCPAPEAAGGPSVFLFPPKPKDTLMISRTPEVTCVVVSVSHEDPEVKFNWYVDGVEVHNAKTKPREEQYNSTYRVVSVLTVLHQDWLNGKEYKCKVSNKALPAPIEKTISKAKGQPREPQVYVYPPSREEMTKNQVSLTCLVKGFYPSDIAVEWESNGQPENNYKTTPPVLDSDGSFALVSKLTVDKSRWQQGNVFSCSVMHEALHNHYTQKSLSLSPGGGSGGGGSGGGGSGGGGSEVQLLESGGGLVQPGGSLRLSCAASGFTFSSRGMSWVRQAPGKCLEWVSFISSSGTYVYYADSVKGRFTISRDNSKNTLYLQMNSLRAEDTAVYYCARDLPRTGVYFGMDVWGQGTTVTVSSGGGGSGGGGSGGGGSGGGGSDIQMTQSPSSLSASVGDRVTITCRASQSIFNYLNWYQQKPGKAPKLLIYGASTLQSGVPSRFSGSGSGTDFTLTISSLQPEDFATYYCQESYSTPYTFGCGTKVEIK
light: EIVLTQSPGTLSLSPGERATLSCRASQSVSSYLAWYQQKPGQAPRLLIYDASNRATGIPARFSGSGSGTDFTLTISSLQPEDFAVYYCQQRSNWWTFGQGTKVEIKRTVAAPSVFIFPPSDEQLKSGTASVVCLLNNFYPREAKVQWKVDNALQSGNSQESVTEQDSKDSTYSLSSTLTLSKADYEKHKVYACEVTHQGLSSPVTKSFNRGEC
notes: 2+1 format: two anti-CD40 9H3 Fabs on an IgG1 Fc with L234A, L235A, D265S and heterodimerization mutations; Ratio 1:1:2
